Source: patent US9752119B2, “Substantially pure human retinal progenitor, forebrain progenitor, and retinal pigment epithelium cell cultures and methods of making the same” (Wisconsin Alumni Research Foundation, priority 2009, dated 2017)

How the values were obtained:
human ESC = experiment: Eye field specification from differentiating human ESC: Pax6 and Rx gene expression (RT-PCR/qPCR) and neuroepithelial colony formation; assay type: cell-based; conditions: for appearance of neuroepithelial colonies / expression of Pax6 and Rx: Wnt3A and BMP4 added together (100 ng/ml) over the first 10 days of differentiation; for appearance of neuroepithelial colonies: morphology at day 10; for expression of Pax6 and Rx: qPCR
Method: (1) Making human ESC aggregates: Human ESC were grown on irradiated MEFs to approximately 80% confluence in a 6-well plate. Upon reaching 80% confluence, the human ESC medium was aspirated off and 1 ml of dispase (1 mg/ml, Gibco #17105-041) solution was added to each well. After 5 minutes, the cells were examined for curling of human ESC colony edges, indicative of the colonies beginning to lift off of the plate. If noticeable curling was evident, the dispase solution was aspirated off of the plate and replaced with 1 ml of DMEM/F12 per well. The human ESC colonies were mechanically lifted from the plate by pipetting a few times with a 10 ml pipette. When all colonies were detached, the cells were transferred to a 15 ml conical tube and allowed to settle by gravity. After the aggregates had settled (˜5 minutes), the supernatant was aspirated and replaced with 10 ml of Embryoid Body (EB) medium, which contained DMEM/F12 (1:1) (Gibco #11330-065), 20% knockout serum replacement (Gibco #10828-028), 0.1 mM β-mercaptoethanol, 1 mM L-glutamine (Gibco #25030-081) and 1% MEM nonessential amino acids (Gibco #11140-050). The pellet of cells was resuspended by repeated pipetting 2-3 times with a 10 ml pipette, just enough to separate the individual aggregates while minimizing their dissociation. Aggregates were approximately 400 μm in diameter. These aggregates were then transferred to a T25 flask and placed in the incubator. The next day, the aggregates formed floating, sphere-like structures. (If significant attachment of human ESC and/or residual MEF cells was observed, the unattached aggregates were transferred to a new flask.) These cells were fed with fresh EB medium every day for the first 4 days.
(2) Differentiating to anterior neuroepithelial fate: The aggregates were then collected by settling in a 15 ml conical tube and washed once with 10 ml of DMEM/F12. Upon resettlement of the aggregates, the supernatant was removed and the aggregates were re-suspended in 10 ml of Neural Induction Medium (NIM) and transferred to a new T25 flask. NIM included DMEM/F12 (1:1) (Gibco #11330-065), 1% N2 supplement (Gibco #17502-048), 1% MEM nonessential amino acids (Gibco #11140-050), and 2 μg/ml heparin (Sigma #H-3149). Two days later, a 6-well plate was coated with laminin (20 μg/ml diluted in DMEM) and the coated plate was left in the incubator overnight. By this time, aggregates had become brighter and acquired clearly defined edges. The next day, approximately 50 aggregates were plated in each well of a 6 well plate. An additional 2 ml of fresh NIM was added to each well. The cells were then placed in the incubator, making sure the cells were distributed evenly in the plate by gently shaking the plate back and forth as well as side-to-side a few times. Within the first couple of days (by a total of 9 days), most aggregates attached to the laminin-coated surface. […]
RT-PCR experiments were done as follows to check gene expression: Total RNA was isolated from cell cultures from various stages of differentiation using the RNAeasy® kit (Qiagen) and treated with DNAse I. Reverse transcription was performed with the Superscript III RT-PCR kit (Invitrogen). […] For quantitative RT-PCR (qPCR), reactions were performed with Sybr Green Supermix (Applied Biosystems) and the Opticon 2 DNA Engine and Opticon Monitor 2.02 software (MJ Research). […]

human ESC cultures = experiment: Mitf and Chx10 gene expression (qPCR) in human ESC cultures treated during optic vesicle and optic cup stages; assay type: cell-based; conditions: SU5402 added days 16-40, measured at day 40
Method: The columnar rosette cells found in the center of these colonies were denser than those cells in the periphery, so they were easily dislodged by this pipetting technique, leaving the non-rosette cells attached to the plate. We took care not to break up the lifted colonies during this step. Detached colonies were collected in a 15 ml conical tube and spun in a centrifuge at 600 rpm for 1 minute to effectively pellet the detached colonies while leaving most single cells in suspension in the culture medium. The supernatant was then aspirated from the tube and the clusters were re-suspended in 10 ml of Retinal Differentiation Medium (RDM) and transferred to a new T25 flask. RDM included DMEM/F12 (3:1) supplemented with 2% B27. […] Within 3-5 days after detachment of the cells (19th-21st day of the differentiation), neurospheres readily adopted one of two major appearances. […]
RT-PCR experiments were done as follows to check gene expression: Total RNA was isolated from cell cultures from various stages of differentiation using the RNAeasy® kit (Qiagen) and treated with DNAse I. Reverse transcription was performed with the Superscript III RT-PCR kit (Invitrogen). […] For quantitative RT-PCR (qPCR), reactions were performed with Sybr Green Supermix (Applied Biosystems) and the Opticon 2 DNA Engine and Opticon Monitor 2.02 software (MJ Research). […] Quantitative RT-PCR primers were run for 40 cycles.

hiPSCs = experiment: Neural/retinal specification of hiPSCs after addition of BMP and Wnt inhibitors (immunocytochemistry, FACS); assay type: cell-based, human; conditions: for expression of Pax6: recombinant Dkk1 and Noggin added together from 2-4 days of differentiation, immunocytochemistry; for expression of Chx10: treatment with Dkk1 and Noggin together, after 20 days of differentiation, FACS
Method: Immunocytochemistry was done as follows to check protein expression: human ESC aggregates or neurospheres were plated onto poly-ornithine- and laminin-coated coverslips overnight to allow for attachment, and then fixed with 4% paraformaldehyde. Cells were then permeabilized in 0.2% Triton X-100 for 10 minutes. For Mitf immunocytochemistry, cells were incubated in ice-cold 90% methanol for 10 minutes as an additional permeabilization step. Labeled cells were visualized with either Alexafluor 488- or Cy3-conjugated secondary antibodies, and nuclei were counterstained with either Hoechst or To-Pro-3 nuclear dyes. Images were obtained from a Nikon TE600 fluorescent microscope equipped with a SPOT camera and software or from z-stacks of cell clusters obtained on a Nikon Cl Laser Scanning Confocal microscope.
FACS analysis was done as follows to quantify the percentage of cells acquiring expression of Pax6 and Rx: Cells were dissociated with either trypsin or Accutase® (Chem icon), washed with a fluorescence-activated cell sorting (FACS) buffer (PBS, 0.1% sodium azide, and 2% donkey serum), and fixed with 0.1% paraformaldehyde for 10 minutes. Cells were then permeabilized with ice-cold 90% methanol for 20 minutes and incubated overnight in primary antibodies at a concentration of 1 μg of antibody per 1 million cells in FACS buffer. Antibody information is found in Table 2. Immunostaining was then completed with either donkey-anti-mouse or donkey-anti-rabbit Alexa 488 secondary antibodies for 2 hours, after which cells were washed with FACS buffer, and then sorted with a Becton Dickinson FACSCaliber. Data retrieved from the sorting was analyzed with CellQuest Pro software (Becton Dickinson).
To test this hypothesis, inhibitors of BMP signaling (Noggin or Dorsomorphin) and Wnt signaling (Dkk-1 or XAV-939) were added to cultures from days 2 to 4 of differentiation, a timeframe that was shown in Example 1 to be prior to the onset of neural specification based on Pax6 and Rax expression. […] This was further confirmed through immunocytochemistry, where cells treated with BMP and Wnt inhibitors were more likely to express the neural transcription factors Pax6 and Sox1 as well as eye field transcription factors Lhx2 and Six6.

[1] = system: hiPSC-derived vesicular neurospheres; experiment: RPE specification from hiPSC-derived vesicular neurospheres in the presence of Activin (bright field microscopy, qPCR); assay type: cell-based, human
Method: RT-PCR experiments were done as follows to check gene expression: Total RNA was isolated from cell cultures from various stages of differentiation using the RNAeasy® kit (Qiagen) and treated with DNAse I. Reverse transcription was performed with the Superscript III RT-PCR kit (Invitrogen). PCR was performed with GoTaq PCR master mix (Promega) and subsequent PCR products were run on 2% agarose gels. For quantitative RT-PCR (qPCR), reactions were performed with Sybr Green Supermix (Applied Biosystems) and the Opticon 2 DNA Engine and Opticon Monitor 2.02 software (MJ Research). All primer sets listed were run for 30 cycles at an annealing temperature of 60° C. unless otherwise noted. Quantitative RT-PCR primers were run for 40 cycles.
Activin signaling has previously been implicated in this cell fate determination and as such, we sought to determine if Activin could influence these cells to adopt an RPE fate. […] Based on this feature, these aggregates could be manually isolated to generate highly enriched populations of RPE. When plated onto a laminin-coated substrate and in the presence of the mitogens FGF2 and EGF, these cells were capable of proliferation and outgrowth from the aggregate (FIG. 18D). […] Further maturation of these treated cells confirms that Activin signaling plays a role in the acquisition of an RPE fate at the expense of the neural retina, as Activin-treated cultures expressed RPE-specific genes such as RPE65 at higher levels than the untreated cells, whereas untreated cells expressed higher levels of genes associated with the neural retina including Brn3A (FIG. 18E-F).

| Molecule | expression of Pax6 (hiPSCs) | expression of Chx10 (hiPSCs) | appearance of neuroepithelial colonies (human ESC) | expression of Pax6 and Rx (human ESC) | also measured |
| --- | --- | --- | --- | --- | --- |
| Cc1c[nH]c(/C=C2\C(=O)Nc3ccccc32)c1CCC(=O)O [SU5402] |  |  |  |  | Pax6 and Rx expression (human ESC; 10 μM SU5402, day 10 of differentiation, RT-PCR): complete loss; increase in Mitf gene expression (human ESC cultures): 11.8 fold; reduction of Chx10 expression (human ESC cultures): 15.9 fold |
| Noggin: recombinant Noggin, inhibitor of BMP signaling (protein, UniProt Q13253 28-232, looked up) Noggin: QHYLHIRPAPSDNLPLVDLIEHPDPIFDPKEKDLNETLLRSLLGGHYDPGFMATSPPEDRPGGGGGAAGGAEDLAELDQLLRQRPSGAMPSEIKGLEFSEGLAQGKKQRLSKKLRRKLQMWLWSQTFCPVLYAWNDLGSRFWPRYVKVGSCFSKRSCSVPEGMVCKPSKSVHLTVLRWRCQRRGGQRCGWIPIQYPIISECKCSC | restored | increased |  |  |  |
| BMP4: recombinant BMP4, added to differentiating human ESC (protein, UniProt P12644 293-408, looked up) Bone morphogenetic protein 4: SPKHHSQRARKKNKNCRRHSLYVDFSDVGWNDWIVAPPGYQAFYCHGDCPFPLADHLNSTNHAIVQTLVNSVNSSIPKACCVPTELSAISMLYLDEYDKVVLKNYQEMVVEGCGCR |  |  | abolished | abolished |  |
| Dkk1: recombinant Dkk1, inhibitor of Wnt signaling (protein, UniProt O94907 32-266, looked up) Dickkopf-related protein 1: TLNSVLNSNAIKNLPPPLGGAAGHPGSAVSAAPGILYPGGNKYQTIDNYQPYPCAEDEECGTDEYCASPTRGGDAGVQICLACRKRRKRCMRHAMCCPGNYCKNGICVSSDQNHFRGEIEETITESFGNDHSTLDGYSRRTTLSSKMYHTKGQEGSVCLRSSDCASGLCCARHFWSKICKPVLKEGQVCTKHRRKGSHGLEIFQRCYCGEGLSCRIQKDHHQASNSSRLHTCQRH | restored | increased |  |  |  |
| Activin: Activin-A added to vesicular neurosphere cultures to influence RPE fate (protein, UniProt P08476 311-426, looked up, Inhibin beta A chain) Inhibin beta A chain: GLECDGKVNICCKKQFFVSFKDIGWNDWIIAPSGYHANYCEGECPSHIAGTSGSSLSFHSTVINHYRMRGHSPFANLKSCCVPTKLRPMSMLYYDDGQNIIKKDIQNMIVEECGCS |  |  |  |  | development of pigmented, RPE-like phenotype ([1]; Activin added upon isolation of vesicular neurospheres until a total of 40 days of differentiation): a subset of the neurospheres was capable of developing a pigmented phenotype; expression of neural retinal-associated genes ([1]; Activin-A treated versus untreated vesicular spheres, qPCR): lower levels; expression of RPE-specific genes such as RPE65 ([1]; Activin-treated versus untreated cultures, qPCR): higher levels |
| Wnt3A: recombinant Wnt3a, added to differentiating human ESC (protein, UniProt P56704 19-352, looked up) Protein Wnt-3a: SYPIWWSLAVGPQYSSLGSQPILCASIPGLVPKQLRFCRNYVEIMPSVAEGIKIGIQECQHQFRGRRWNCTTVHDSLAIFGPVLDKATRESAFVHAIASAGVAFAVTRSCAEGTAAICGCSSRHQGSPGKGWKWGGCSEDIEFGGMVSREFADARENRPDARSAMNRHNNEAGRQAIASHMHLKCKCHGLSGSCEVKTCWWSQPDFRAIGDFLKDKYDSASEMVVEKHRESRGWVETLRPRYTYFKVPTERDLVYYEASPNFCEPNPETGSFGTRDRTCNVSSHGIDGCDLLCCGRGHNARAERRREKCRCVFHWCCYVSCQECTRVYDVHTCK |  |  | abolished | abolished |  |
